Test results from patent US20030144481A1.
Values belong to the substance of their own block, whether it stands above or below them.

Experiments:
[1] = target: human αvβ3 protein (CHEMICON International), soluble (human) (UniProt P06756); experiment: cell-based or functional assay
[2] = target: integrin β1 subunit on HUVEC cells (human) (UniProt P05556); experiment: cell binding to type IV collagen-coated plates; 10 µg/ml antibody; against control IgG
[3] = target: integrin β1 subunit on HUVEC cells (human) (UniProt P05556); experiment: HUVEC attachment to Tumstatin-coated plates; 10 µg/ml antibody; against control IgG
[4] = target: integrin β1 subunit on HUVEC cells (human) (UniProt P05556); experiment: HUVEC adhesion to Arresten-coated plates; 10 µg/ml antibody; blocked pair Arresten / integrin β1
[5] = target: integrin β1 subunit on HUVEC cells (human) (UniProt P05556); experiment: HUVEC adhesion to collagen Type IV-coated plates; 10 µg/ml antibody
[6] = target: integrin β1 subunit on HUVEC cells (human) (UniProt P05556); experiment: HUVEC attachment to plates coated with E. coli Tumstatin-45-132; 10 µg/ml antibody
[7] = target: αvβ3 integrin on C-PAE cells (bovine) (UniProt P80746); experiment: C-PAE attachment to Tum-4-coated plates
[8] = target: αvβ3 integrin on HUVEC cells (human) (UniProt P06756); experiment: cell binding to vitronectin-coated plates; 10 µg/ml antibody
[9] = target: αvβ3 integrin on HUVEC cells (human) (UniProt P06756); experiment: HUVEC attachment to Tumstatin-coated plates; 10 µg/ml antibody; against control IgG
[10] = target: αvβ3 integrin on C-PAE cells (bovine) (UniProt P80746); experiment: C-PAE attachment to Tum-1-coated plates
[11] = target: αvβ3 integrin on HUVEC cells (human) (UniProt P06756); experiment: HUVEC adhesion to collagen Type IV-coated plates; 10 µg/ml antibody
[12] = target: αvβ3 integrin on HUVEC cells (human) (UniProt P06756); experiment: HUVEC attachment to Tumstatin-coated plates; anti-αvβ3 and anti-β1 antibodies used together
[13] = target: αvβ3 integrin on HUVEC cells (human) (UniProt P06756); experiment: HUVEC attachment to plates coated with E. coli Tumstatin-45-132; 10 µg/ml antibody
[14] = target: αvβ3 integrin on C-PAE cells (bovine) (UniProt P80746); experiment: C-PAE attachment to Tum-2-coated plates

integrin β1 subunit on HUVEC cells (human), sequence (P05556 21-798): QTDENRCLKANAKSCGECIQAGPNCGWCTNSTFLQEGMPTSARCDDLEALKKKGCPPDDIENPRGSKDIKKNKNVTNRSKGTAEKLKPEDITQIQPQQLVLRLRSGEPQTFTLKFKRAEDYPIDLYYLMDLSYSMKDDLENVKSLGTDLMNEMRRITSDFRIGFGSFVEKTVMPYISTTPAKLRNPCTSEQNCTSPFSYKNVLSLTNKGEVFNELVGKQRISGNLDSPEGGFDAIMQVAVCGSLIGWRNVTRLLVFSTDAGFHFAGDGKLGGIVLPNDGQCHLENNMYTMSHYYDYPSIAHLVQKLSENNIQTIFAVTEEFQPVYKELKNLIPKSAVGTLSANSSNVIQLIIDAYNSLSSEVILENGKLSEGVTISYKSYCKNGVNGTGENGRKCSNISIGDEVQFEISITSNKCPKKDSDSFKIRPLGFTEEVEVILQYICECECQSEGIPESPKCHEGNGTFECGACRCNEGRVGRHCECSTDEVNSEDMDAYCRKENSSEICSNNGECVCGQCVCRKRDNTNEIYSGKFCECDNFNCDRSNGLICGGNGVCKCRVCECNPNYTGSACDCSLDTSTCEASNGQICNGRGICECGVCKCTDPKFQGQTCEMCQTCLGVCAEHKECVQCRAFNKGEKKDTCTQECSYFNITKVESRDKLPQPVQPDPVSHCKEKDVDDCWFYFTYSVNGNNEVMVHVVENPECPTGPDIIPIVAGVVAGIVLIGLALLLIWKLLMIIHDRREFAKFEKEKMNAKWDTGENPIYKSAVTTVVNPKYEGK
αvβ3 integrin on HUVEC cells (human), sequence (P06756 31-1048, chain 1 of 2): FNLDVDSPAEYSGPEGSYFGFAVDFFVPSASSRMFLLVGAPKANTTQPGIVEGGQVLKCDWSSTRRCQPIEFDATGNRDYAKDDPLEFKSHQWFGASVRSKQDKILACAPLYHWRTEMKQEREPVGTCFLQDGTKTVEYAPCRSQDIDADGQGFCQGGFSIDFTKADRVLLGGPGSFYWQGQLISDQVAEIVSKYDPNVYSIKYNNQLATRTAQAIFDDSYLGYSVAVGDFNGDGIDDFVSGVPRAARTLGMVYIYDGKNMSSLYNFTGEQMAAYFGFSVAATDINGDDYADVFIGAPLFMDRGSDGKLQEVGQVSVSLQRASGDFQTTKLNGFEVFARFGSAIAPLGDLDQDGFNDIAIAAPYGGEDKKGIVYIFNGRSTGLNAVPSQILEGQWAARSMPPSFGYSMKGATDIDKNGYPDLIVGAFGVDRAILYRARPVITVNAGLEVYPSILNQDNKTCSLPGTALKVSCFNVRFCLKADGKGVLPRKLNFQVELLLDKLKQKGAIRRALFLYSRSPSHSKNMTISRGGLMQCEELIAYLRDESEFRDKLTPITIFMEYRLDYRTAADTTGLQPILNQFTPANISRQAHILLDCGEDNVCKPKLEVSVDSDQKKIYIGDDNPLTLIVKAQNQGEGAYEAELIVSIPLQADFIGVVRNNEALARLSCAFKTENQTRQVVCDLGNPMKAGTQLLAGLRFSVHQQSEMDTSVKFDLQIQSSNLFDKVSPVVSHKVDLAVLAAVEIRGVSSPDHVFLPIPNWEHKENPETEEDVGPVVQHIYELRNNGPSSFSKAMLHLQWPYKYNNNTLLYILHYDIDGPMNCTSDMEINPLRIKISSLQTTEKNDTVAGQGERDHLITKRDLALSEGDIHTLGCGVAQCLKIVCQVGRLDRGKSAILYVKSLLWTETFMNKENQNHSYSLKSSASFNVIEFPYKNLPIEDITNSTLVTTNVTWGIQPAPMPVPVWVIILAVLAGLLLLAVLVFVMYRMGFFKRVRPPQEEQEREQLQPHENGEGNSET
αvβ3 integrin on HUVEC cells (human), sequence (P05106 27-788, chain 2 of 2, further chain): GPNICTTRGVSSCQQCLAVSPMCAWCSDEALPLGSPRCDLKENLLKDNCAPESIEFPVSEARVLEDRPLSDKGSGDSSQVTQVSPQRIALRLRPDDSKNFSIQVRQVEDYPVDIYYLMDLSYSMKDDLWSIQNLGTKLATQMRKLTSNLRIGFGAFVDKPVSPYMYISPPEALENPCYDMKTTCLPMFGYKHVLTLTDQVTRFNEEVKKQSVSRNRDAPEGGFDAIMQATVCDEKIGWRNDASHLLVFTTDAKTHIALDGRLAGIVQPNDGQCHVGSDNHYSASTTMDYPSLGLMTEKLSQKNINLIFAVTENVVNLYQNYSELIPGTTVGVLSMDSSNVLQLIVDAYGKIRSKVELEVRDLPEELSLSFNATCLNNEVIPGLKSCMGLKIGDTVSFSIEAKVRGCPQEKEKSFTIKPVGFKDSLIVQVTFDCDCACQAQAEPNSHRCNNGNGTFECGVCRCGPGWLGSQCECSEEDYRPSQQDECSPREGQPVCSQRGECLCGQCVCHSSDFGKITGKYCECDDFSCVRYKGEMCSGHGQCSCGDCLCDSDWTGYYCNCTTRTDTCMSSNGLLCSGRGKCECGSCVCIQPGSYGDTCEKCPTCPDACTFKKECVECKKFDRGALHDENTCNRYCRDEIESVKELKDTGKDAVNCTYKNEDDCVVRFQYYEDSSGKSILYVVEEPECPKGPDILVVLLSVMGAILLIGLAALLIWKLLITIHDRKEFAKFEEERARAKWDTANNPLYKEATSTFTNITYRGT
αvβ3 integrin on C-PAE cells (bovine), sequence (P80746 31-1048): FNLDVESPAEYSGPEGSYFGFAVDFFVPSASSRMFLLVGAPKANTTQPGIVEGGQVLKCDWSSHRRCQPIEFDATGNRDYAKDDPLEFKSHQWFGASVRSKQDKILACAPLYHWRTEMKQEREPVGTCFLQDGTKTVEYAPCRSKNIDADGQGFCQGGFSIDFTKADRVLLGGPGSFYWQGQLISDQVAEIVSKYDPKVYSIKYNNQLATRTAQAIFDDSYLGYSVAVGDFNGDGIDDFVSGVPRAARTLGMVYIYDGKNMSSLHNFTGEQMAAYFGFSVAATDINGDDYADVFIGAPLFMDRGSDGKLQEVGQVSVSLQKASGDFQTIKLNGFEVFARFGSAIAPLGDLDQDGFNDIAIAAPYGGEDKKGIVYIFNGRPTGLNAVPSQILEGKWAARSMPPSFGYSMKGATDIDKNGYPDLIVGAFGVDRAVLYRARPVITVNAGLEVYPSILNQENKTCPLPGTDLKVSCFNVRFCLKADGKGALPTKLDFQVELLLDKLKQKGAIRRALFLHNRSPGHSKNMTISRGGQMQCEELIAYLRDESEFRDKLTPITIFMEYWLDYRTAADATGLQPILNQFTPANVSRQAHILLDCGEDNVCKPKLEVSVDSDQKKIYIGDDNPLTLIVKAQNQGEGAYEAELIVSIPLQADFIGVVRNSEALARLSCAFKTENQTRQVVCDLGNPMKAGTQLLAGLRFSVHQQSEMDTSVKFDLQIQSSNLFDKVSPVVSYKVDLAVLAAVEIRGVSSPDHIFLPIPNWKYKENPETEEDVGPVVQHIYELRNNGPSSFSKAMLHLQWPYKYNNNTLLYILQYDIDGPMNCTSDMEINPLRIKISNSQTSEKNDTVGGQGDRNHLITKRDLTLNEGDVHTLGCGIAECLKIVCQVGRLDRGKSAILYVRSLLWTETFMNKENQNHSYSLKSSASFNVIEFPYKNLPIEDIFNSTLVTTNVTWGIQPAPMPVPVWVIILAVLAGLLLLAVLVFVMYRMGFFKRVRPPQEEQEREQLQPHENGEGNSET

recovery of the anti-proliferative effect on WM-164 melanoma cells (methylene blue) [1]: 76.7%
Substance: Tum-4 (from UniProt Q01955 1607-1670) (ligand)

% inhibition of cell binding [2]: 53% | % inhibition of cell attachment [3]: 54% | % inhibition of cell adhesion [4]: 70% | % inhibition of cell adhesion [5]: 40% | % inhibition of cell attachment [6]: 47.5%
Substance: mouse monoclonal antibody to the human β1 integrin (clone P4C10, Life Technologies/Gibco BRL)

% inhibition of cell attachment [7]: 62.6% | % inhibition of cell binding [8]: 61% | % inhibition of cell attachment [9]: 80% | % inhibition of cell attachment [10]: 55.9% | % inhibition of cell adhesion [11]: 15% | % inhibition of cell attachment [12]: 91% | % inhibition of cell attachment [13]: 47.1% | % inhibition of cell attachment [14]: 69.8%
Substance: monoclonal antibody to αvβ3 integrin (clone LM609, CHEMICON International)

recovery of the anti-proliferative effect on C-PAE cells (methylene blue) [1]: 74.1%
Substance: Tum-2 (from UniProt Q01955 1427-1558) (ligand)
